# Laboratory results: PMC2397435 (2008)
# B1: Gal4 DBD-HIV-1 p6 (wild type) [HIV-1 (pNL4-3)] / Gal4 AD-ALIX (868 amino acid-long) [not stated] (parent complex)
# chain 1: LQSRPEPTAPPEESFRFGEETTTPSQKQEPIDKELYPLTSLRSLFGSDPSSQ
# chain 2: MATFISVQLKKTSEVDLAKPLVKFIQQTYPSGGEEQAQYCRAAEELSKLRRAAVGRPLDKHEGALETLLRYYDQICSIEPKFPFSENQICLTFTWKDAFDKGSLFGGSVKLALASLGYEKSCVLFNCAALASQIAAEQNLDNDEGLKIAAKHYQFASGAFLHIKETVLSALSREPTVDISPDTVGTLSLIMLAQAQEVFFLKATRDKMKDAIIAKLANQAADYFGDAFKQCQYKDTLPKEVFPVLAAKHCIMQANAEYHQSILAKQQKKFGEEIARLQHAAELIKTVASRYDEYVNVKDFSDKINRALAAAKKDNDFIYHDRVPDLKDLDPIGKATLVKSTPVNVPISQKFTDLFEKMVPVSVQQSLAAYNQRKADLVNRSIAQMREATTLANGVLASLNLPAAIEDVSGDTVPQSILTKSRSVIEQGGIQTVDQLIKELPELLQRNREILDESLRLLDEEEATDNDLRAKFKERWQRTPSNELYKPLRAEGTNFRTVLDKAVQADGQVKECYQSHRDTIVLLCKPEPELNAAIPSANPAKTMQGSEVVNVLKSLLSNLDEVKKEREGLENDLKSVNFDMTSKFLTALAQDGVINEEALSVTELDRVYGGLTTKVQESLKKQEGLLKNIQVSHQEFSKMKQSNNEANLREEVLKNLATAYDNFVELVANLKEGTKFYNELTEILVRFQNKCSDIVFARKTERDELLKDLQQSIAREPSAPSIPTPAYQSSPAGGHAPTPPTPAPRTMPPTKPQPPARPPPPVLPANRAPSATAPSPVGAGTAAPAPSQTPGSAPPPQAQGPPYPTYPGYPGYCQMPMPMGYNPYAYGQYNMPYPPVYHQSPGQAPYPGPQQPSYPFPQPPQQSYYPQQ
# Variants of: B1
# Assay: yeast two-hybrid, liquid β-galactosidase assay; yeast AH109, 30°C, SD/-Leu/-Trp selection medium; triplicate; parent: 1; read off a plot
row,Variant,ratio to parent
1,chain 1 G46A,~0.95
2,chain 1 K33A,~1
3,chain 1 L44A,~0.6
4,chain 1 S43A,~0.8
5,chain 1 L35A,~0.2
6,chain 1 I31A,~0.95
7,chain 1 T39A,~1.1
8,chain 1 E34A,~0.35
9,chain 1 R42A,~0.25
10,chain 1 F45A,~1
11,chain 1 S40A,~1
12,chain 1 D32A,~0.86
13,chain 1 L41A,~0.15
14,chain 1 P37A,~0.3
